{"source": "the supplement of paper PMC9112550", "about": "“Optimization of the antimicrobial peptide Bac7 by deep mutational scanning” (BMC Biology, 2022);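 also: peptides expressed intracellularly from a pBAD plasmid library in pooled LB shake-flask culture, induced with 0.3% L-arabinose, DNA abundance read by NGS, three biological replicates, DESeq2 with apeglm shrinkage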"}
{"tested_on": "Escherichia coli TOP10", "assay": "shrunken log2 fold change of peptide-encoding DNA abundance (4.5 h post-induction vs induction); higher = less antimicrobial activity (less host growth inhibition)", "conditions": "time post-induction: 4.5 h; library: site-saturation at positions 5, 18, 19, 20"}
{"sequence": "RRIRMRPPRLPRPRPRPVQQPRP", "shrunken log2 fold change": 0.113}
{"sequence": "RRIRERPPRLPRPRPRPSCAPRP", "shrunken log2 fold change": -0.173}
{"sequence": "RRIRVRPPRLPRPRPRPTWNPRP", "shrunken log2 fold change": 0.13}
{"sequence": "RRIRKRPPRLPRPRPRPWGTPRP", "shrunken log2 fold change": 0.341}
{"sequence": "RRIRYRPPRLPRPRPRPWRDPRP", "shrunken log2 fold change": -0.0075}
{"sequence": "RRIRVRPPRLPRPRPRPQPKPRP", "shrunken log2 fold change": 0.0199}
{"sequence": "RRIRGRPPRLPRPRPRPDSVPRP", "shrunken log2 fold change": 0.704}
{"sequence": "RRIRTRPPRLPRPRPRPCNNPRP", "shrunken log2 fold change": -0.276}
{"sequence": "RRIRFRPPRLPRPRPRPSWAPRP", "shrunken log2 fold change": -0.308}
{"sequence": "RRIRNRPPRLPRPRPRPQHSPRP", "shrunken log2 fold change": -0.428}
{"sequence": "RRIRCRPPRLPRPRPRPMCEPRP", "shrunken log2 fold change": -0.0476}
{"sequence": "RRIRNRPPRLPRPRPRPAFIPRP", "shrunken log2 fold change": -0.579}
{"sequence": "RRIRWRPPRLPRPRPRPCCDPRP", "shrunken log2 fold change": 0.0279}
{"sequence": "RRIRFRPPRLPRPRPRPCMCPRP", "shrunken log2 fold change": -0.544}
{"sequence": "RRIRYRPPRLPRPRPRPGTKPRP", "shrunken log2 fold change": -0.0505}
{"sequence": "RRIRARPPRLPRPRPRPDWKPRP", "shrunken log2 fold change": -0.108}
{"sequence": "RRIRCRPPRLPRPRPRPDDSPRP", "shrunken log2 fold change": 0.14}
{"sequence": "RRIRIRPPRLPRPRPRPIEQPRP", "shrunken log2 fold change": -0.489}
{"sequence": "RRIRWRPPRLPRPRPRPVFPPRP", "shrunken log2 fold change": 0.268}
{"sequence": "RRIRRRPPRLPRPRPRPFKVPRP", "shrunken log2 fold change": -0.0272}
{"sequence": "RRIRYRPPRLPRPRPRPADPPRP", "shrunken log2 fold change": 0.035}
{"sequence": "RRIRCRPPRLPRPRPRPCSLPRP", "shrunken log2 fold change": -0.477}
{"sequence": "RRIRRRPPRLPRPRPRPEMVPRP", "shrunken log2 fold change": 0.0411}
{"sequence": "RRIRTRPPRLPRPRPRPADQPRP", "shrunken log2 fold change": -0.0202}
{"sequence": "RRIRHRPPRLPRPRPRPNLDPRP", "shrunken log2 fold change": -1.17}
{"sequence": "RRIRFRPPRLPRPRPRPPGDPRP", "shrunken log2 fold change": 0.58}
{"sequence": "RRIRFRPPRLPRPRPRPAMEPRP", "shrunken log2 fold change": 0.0126}
{"sequence": "RRIRHRPPRLPRPRPRPFLIPRP", "shrunken log2 fold change": -0.687}
{"sequence": "RRIRARPPRLPRPRPRPYFAPRP", "shrunken log2 fold change": -0.201}
{"sequence": "RRIRPRPPRLPRPRPRPEKPPRP", "shrunken log2 fold change": -0.129}
{"sequence": "RRIRARPPRLPRPRPRPEIWPRP", "shrunken log2 fold change": 1.55}
{"sequence": "RRIRVRPPRLPRPRPRPHPGPRP", "shrunken log2 fold change": -0.325}
{"sequence": "RRIRVRPPRLPRPRPRPKWIPRP", "shrunken log2 fold change": -0.114}
{"sequence": "RRIRIRPPRLPRPRPRPEGCPRP", "shrunken log2 fold change": -0.0356}
{"sequence": "RRIRDRPPRLPRPRPRPTFRPRP", "shrunken log2 fold change": -0.0707}
{"sequence": "RRIRARPPRLPRPRPRPGQCPRP", "shrunken log2 fold change": 0.203}
{"sequence": "RRIRRRPPRLPRPRPRPNYDPRP", "shrunken log2 fold change": -0.187}
{"sequence": "RRIRTRPPRLPRPRPRPFYAPRP", "shrunken log2 fold change": -0.301}
{"sequence": "RRIRNRPPRLPRPRPRPNIFPRP", "shrunken log2 fold change": -0.29}
{"sequence": "RRIRQRPPRLPRPRPRPEGHPRP", "shrunken log2 fold change": 0.00489}
{"sequence": "RRIRYRPPRLPRPRPRPARIPRP", "shrunken log2 fold change": 0.0141}
{"sequence": "RRIRERPPRLPRPRPRPKKHPRP", "shrunken log2 fold change": -0.55}
{"sequence": "RRIRWRPPRLPRPRPRPGLWPRP", "shrunken log2 fold change": 1.16}
{"sequence": "RRIRHRPPRLPRPRPRPIPHPRP", "shrunken log2 fold change": -0.664}
{"sequence": "RRIRKRPPRLPRPRPRPRSGPRP", "shrunken log2 fold change": 0.183}
{"sequence": "RRIRARPPRLPRPRPRPDPPPRP", "shrunken log2 fold change": 0.901}
{"sequence": "RRIRARPPRLPRPRPRPNHKPRP", "shrunken log2 fold change": -0.351}
{"sequence": "RRIRLRPPRLPRPRPRPWHTPRP", "shrunken log2 fold change": -0.314}
{"sequence": "RRIRVRPPRLPRPRPRPVHLPRP", "shrunken log2 fold change": 0.0586}
{"sequence": "RRIRFRPPRLPRPRPRPIEKPRP", "shrunken log2 fold change": -0.0389}
{"sequence": "RRIRPRPPRLPRPRPRPPHWPRP", "shrunken log2 fold change": 0.865}
{"sequence": "RRIRSRPPRLPRPRPRPKFFPRP", "shrunken log2 fold change": 0.113}
{"sequence": "RRIRCRPPRLPRPRPRPLRDPRP", "shrunken log2 fold change": 0.948}
{"sequence": "RRIRPRPPRLPRPRPRPNMIPRP", "shrunken log2 fold change": -0.531}
{"sequence": "RRIRKRPPRLPRPRPRPMQVPRP", "shrunken log2 fold change": 0.175}
{"sequence": "RRIRRRPPRLPRPRPRPQPKPRP", "shrunken log2 fold change": 0.761}
{"sequence": "RRIRLRPPRLPRPRPRPQSMPRP", "shrunken log2 fold change": -0.197}
{"sequence": "RRIRTRPPRLPRPRPRPGDGPRP", "shrunken log2 fold change": 0.393}
{"sequence": "RRIRVRPPRLPRPRPRPYRSPRP", "shrunken log2 fold change": -1.55}
{"sequence": "RRIRNRPPRLPRPRPRPGDLPRP", "shrunken log2 fold change": 0.107}
{"sequence": "RRIRTRPPRLPRPRPRPAEEPRP", "shrunken log2 fold change": 0.0505}
{"sequence": "RRIRGRPPRLPRPRPRPYWCPRP", "shrunken log2 fold change": -0.0844}
{"sequence": "RRIRMRPPRLPRPRPRPWVAPRP", "shrunken log2 fold change": 0.109}
{"sequence": "RRIRERPPRLPRPRPRPLMLPRP", "shrunken log2 fold change": -0.813}
{"sequence": "RRIRRRPPRLPRPRPRPRTEPRP", "shrunken log2 fold change": 0.432}
{"sequence": "RRIRFRPPRLPRPRPRPWAPPRP", "shrunken log2 fold change": -0.013}
{"sequence": "RRIRGRPPRLPRPRPRPNKTPRP", "shrunken log2 fold change": -0.0264}
{"sequence": "RRIRYRPPRLPRPRPRPCCRPRP", "shrunken log2 fold change": -0.732}
{"sequence": "RRIRTRPPRLPRPRPRPWTGPRP", "shrunken log2 fold change": -0.352}
{"sequence": "RRIRYRPPRLPRPRPRPTYMPRP", "shrunken log2 fold change": -1}
{"sequence": "RRIRIRPPRLPRPRPRPGQSPRP", "shrunken log2 fold change": 0.0669}
{"sequence": "RRIRNRPPRLPRPRPRPITRPRP", "shrunken log2 fold change": -0.0765}
{"sequence": "RRIRFRPPRLPRPRPRPWPWPRP", "shrunken log2 fold change": -0.00192}
{"sequence": "RRIRCRPPRLPRPRPRPVDAPRP", "shrunken log2 fold change": 0.323}
{"sequence": "RRIRTRPPRLPRPRPRPSHCPRP", "shrunken log2 fold change": -0.0229}
